Test results from PMC6054568.

Columns and labels:
ErbB2 V635G CCH-10 = ErbB2 V635G CCH-10 (UniProt P04626); assay: bipartite tetracysteine display
ErbB2 CCH-10 = ErbB2 CCH-10 (UniProt P04626); assay: bipartite tetracysteine display

Row | fold increase in ReAsH fluorescence (no growth factor) (ErbB2 V635G CCH-10) [fold] | fold increase in ReAsH fluorescence (no growth factor) (ErbB2 CCH-10) [fold] | Substance
1 | 1.7 |  | ErbB2 V635G CCH-10 (from UniProt P04626 23-1255) (receptor)
2 |  | 1.8 | ErbB2 CCH-10 (from UniProt P04626 23-1255) (receptor)
